According to the nanobody polyreactivity screen of Harvey et al. (2022):

Assay: yeast display, Sf9 membrane polyspecificity reagent, FACS + sequencing; frameworks hold sequencing errors
How it was run: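 Polyreactivity labels are assigned by the sorting gate from which each nanobody was recovered. The gates were low and high (top ~1%), set on anti-HA fluorescence for expression and streptavidin fluorescence for reagent binding. Before sorting, galactose-induced (36–48 hours) yeast display cells were stained for 1 hour at 4 °C with 10% biotinylated, detergent-solubilized Sf9 membrane reagent.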

Row | Sequence | polyreactivity (PSR sort gate)
1 | QVQLVESGGGLVQAGGSLRLSCSASGGTFSYYAMGWYRQAPGKERELVASISTDGGSTYYADSVKGRFTISRDNAKNTVYLQMNSLKPEDTAVYYCNARPRGYSDRYGYWGQGTQVTVSS | high polyreactivity
2 | QVQLVESGGGLVQAGGSLRLSCAASGFTLYRYAMGWYIQAPGKERELVAAISKRGASSYYADSVKGRFTISRDNAKNTVYLQMNSLKPEDTAVYYCAATISRAYKPVKGHYYLGMDYWGQGTQVTVSS | high polyreactivity
3 | QVQLVESGGGLVQAGGSLPLSCAASGRTFWDNAMGWYRQAPGKERELVATITSGDSTNYADSVKWRFTISRDNAKNTVYLQMNSLKPEDTAVYDCARVIVFDAYEFDYWGQGTQVTVSS | low polyreactivity
4 | QVQLVESGGGLVQAGGSLRLSCAASGRTFNYYVMGWFRQAPGKERELVATINWSGGSTYYADSVKGRFTISRDNAKNTVYLQMNSLKPEDTAVYYCAARWFYHRNHNRNYWGQGTQVTVSS | high polyreactivity
5 | QVQLVESGGGLVQARGSLRLSCAASGFIFRDNAMGWYRQAPGKERELVAAISKSGGRTYYADSVKGRFTISRDNAKNTVYLQMNSLKPEDTAVYYCAKASRYWSLYYWGQGTQVTVSS | high polyreactivity
6 | QVQLVESGGGLVQAGGSLRLSCAASGSTFTGYTMGWYRQAPGKERELVAAISRRGTSTYYADSVKGRFTISRDNAKNSVYLQMNSLKPEDTAVYYCADYQGQKGYDYWGQGTQVTVSS | high polyreactivity
7 | QVQRVESAGGLVQAGGSLRLSCAASGSTFLYNAMGWYRQAPGKERELVAAISWSGGSTYYADSVKGRFTISRDNAKNTVYLQMNSLKPEDTAVYYCAKPRSWGYNWGQGTQVTVSS | high polyreactivity
8 | QVQLVESGGGLVQAGGSLRLSCAASGFIFRHNGMGWYRQAPGKERELVAAITKRGGDTYYADSVKGRFTISRDNAKNSVYLQMISLKREDTAVYYCTVDVRYPVSFDYDYWGQGNQVTVSS | low polyreactivity
9 | QVQLVESGGGLDQARGSLRLSCAASGSTFAFYAMGWYRQAPGKERELVAAITGDGDSTYYADSVKGRFTISRDNAKNTVYLQMNSLKPEDTAVYYCAKSSGGGPSSFDYWGQGTQVTVSS | low polyreactivity
10 | QVQLVESGGGLVQAGGSLRLSCAASGRTFPGYAMGWYRQAPGKERELVATITLSDGSTYYADSVKGRFTISRDNAKTTVYLQMNSLKPEDTAVYYCNARRSYFLRYGVNYWGQGTQVTVSS | low polyreactivity
11 | QVQLVESGGGLVQAGGSLRLSCAASGSISFSNAMGWYRQAPGKERELVAAISWSGGRTYYADSVKGRCTISRDNAKNTVYLQMNSLKPEDTAVYYCAADDFRYGRQVLGLNDYNYWGLGTQVTVSS | low polyreactivity
12 | QVQLVESGGGLVQAGGSLRLSCAASGRIFDGYAMGWYRQAPGKERELVAAISSRGGRTYYADSVKGRFTISRDNAKNTVYLQMNSLKPEDTAVYYCAGDDPYGEGDYWGQGTQVTVSS | low polyreactivity
13 | QVQLVESGGGLVQAGGSLGLSCAASGFTFYYYAMGWYRQAPGKERELVAIRFRGGNTYYADSVKGRFTISRDNAENTVYLQMNSLKPEDTAVYYCNADDLGSTYVDYDYWGQGTQVTVSS | low polyreactivity
14 | QVQLEESGGGLVQAGGSLRLSCAASGFTFAYYAMGWYRQAPGKERELVAGISWRGGRTYYADSVKGRFTISRDNAKNTVYLQMNSLKPEDTAVYYCNARNSYRPGRGYDYGGQGTQVTVSS | high polyreactivity
15 | QVQLVESGGGLVQAGGSLRLSCSASGITFFTYAMGWYRQAPGKERELVAAISGSGGSTYYADSVKGRFTISRDNAKNTVYLQMNSLKPEDTADYYCAAEYTYASPYDYWGQGTQVTVSS | low polyreactivity
16 | QVQLVESVGDLVQAGGSLRLSCAASGRNFPVYAMGWYRQAPGKERELVAAITFRSGSTYYADSVKGRFTISRDNAKNTVYLQMNSLKPEDTAVYYCAADFSVQYVGYSAIEGYWGQGTQVTVSS | high polyreactivity
17 | QVQLVESGGGLVQAGGSLRLSCAASGSTFQYYAMGWYRQAPGKERELVAAISAGGTRTYYADSVKGRFTISRDNAKNTVYLQMNSLKPEDPAVYYCNADDLHFVARYDYWGQGTQVTVSS | low polyreactivity
